Data taken from the supplement of paper PMC10567573.

B1: TMEM106C (parent)
chain: YVTTNVSLIPPRSEQLVNFTGKAE
B2: MYL5 (parent)
chain: FQFASIDVAGNLDYKALSYVITHG

Variants of: B1
Test: protein stability index of a GFP-peptide fusion (GPS, HEK-293T) (PSI 1-6); higher = more stable
Details: c terminus: a fixed tail appended
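Note: lentivirally expressed fusions sorted by FACS into six bins by GFP to DsRed ratio, PSI derived from sequencing read proportions per bin multiplied by bin number.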

Protein stability index of substitutions, site by site:
N5: R 2.17; T 2.52; A 1.91; F 2.64; E 2.05; D 1.96; S 1.63; Q 2.71; C 2.28; K 2.41; P 2.67; Y 2.98; I 2.24; W 3.52; H 1.66; M 2.16; G 1.22; V 1.69; L 2.32
V2: A 2.81; S 3.79; Q 3.28; M 3.03; W 2.66; R 3.23; Y 3.22; D 4.58; C 2.3; L 2.83; E 4.58; H 2.62; P 3.98; T 3.48; I 2.67; F 2.98; N 4.08; K 3.51; G 4.17
Y1: C 2.4; L 2.94; D 3.69; M 3.08; S 3.24; I 2.46; F 2.21; T 3.44; Q 3.17; N 3.79; A 3.53; P 3.49; K 3.61; W 2.15; R 3.44; G 4; E 3.54; V 2.19; H 3.88
T3: V 1.98; A 2.75; M 1.46; I 2.12; F 2.58; K 2.18; G 2.11; H 1.98; C 2.3; N 1.82; R 2.52; E 2.99; Y 2.45; D 1.9; L 2.15; P 3.42; W 2.91; Q 2.64; S 1.98
T4: G 1.89; K 1.77; R 2.23; M 2.59; Q 2.54; D 2.03; Y 2.24; H 2.07; S 1.86; P 2.43; A 1.71; C 1.29; I 1.75; L 2.45; V 1.51; F 1.43; W 2.85; N 2.1; E 1.94
V6: D 2.37; L 2.06; M 1.75; Q 1.68; R 1.92; E 2.36; C 1.82; G 1.77; K 1.87; N 2.26; A 1.86; F 3.64; H 1.59; I 1.86; P 2

Variants of: B2
Test: as above
Details: c terminus: a fixed tail appended

Protein stability index, by site and new letter:
Y19: H 2.35; K 1.06; E 2.89; W 2.69; F 1.87; D 1.53; T 1.83; M 2.44; G 3.74; N 2.41; Q 3.41; S 1.73; R 2.11; P 1.43; V 2.19
V8: K 2.17; P 2.55; S 2.09; E 2.42; C 2.11; G 3.17; N 2.44; D 4.22; M 2.67; R 2.8; W 2.9; H 3.1
A16: Q 2.81; L 2.64; T 2.44; V 3.37; D 3.18; N 1.91; K 2.25; E 2.37; S 2.11; P 5.11; F 3.33
H23: K 1.43; P 2.56; D 2.25; A 2.01; L 2.78; E 2.44; R 2.65; Q 3.48; T 2.42
G10: N 2.84; V 2.6; W 1.35; Q 3.41; D 2.05; F 2.96; L 1.72; P 2.92; I 2.02; E 3.19; A 2.49; K 2.08; H 1.84
D7: N 2.8; A 2.72; K 2.52; G 2.38; E 2.83; R 1.11; C 3.48; S 3.9; Y 3.46; I 3.19
S18: E 1.56; I 2.66; D 1.75; Q 1.49; M 3.46; K 1.62; L 1.83
T22: G 3.98; I 2.55; E 2.02; D 1.8; M 2.95; K 2.22; Q 2.54; N 2.52; H 3.83; A 2.03; C 2.52; W 4.39
A9: K 2.71; P 1.7; M 3.38; Q 1.91; H 2.26; Y 4.67; F 2.33; N 3.37; T 3.01; L 2.77
D13: P 2.51; N 3.69; V 2.86; A 3.41; T 2.23; L 2.49
N11: C 3.05; K 2.17; T 2.92; Q 5.1; W 2.82; D 1.17; A 2.52; S 3.23; P 3.96; E 2.83
Y14: E 1.25; S 2.15; Q 2.03; H 2.1; W 3.44; N 2.27; D 2.21; T 3.5; A 1.82; K 2.48; M 2.4; R 3.3; P 2.28
K15: A 3.38; S 2.31; I 2.98; D 2.81; R 2.16; V 2.4; F 2.81; Y 3.8; N 2.34; E 1.14; G 1.5; H 2.12; T 3.79; Q 3.65
I6: P 2.43; Y 2.46; M 3.92; A 2.72; S 1.18; E 1.49; Q 2.92; T 1.66; H 4; G 1.26; F 4.13; N 3.39; D 1.4
V20: S 3.47; C 3.44; P 1.32; R 2.46; G 2.81; F 3.64; A 3.37; Q 2.96; K 2.23; M 1.49; N 1.7; H 3.27; D 1.34; T 2.29; Y 1.3
I21: R 1.03; D 2.57; K 1.64; T 1.54; P 2.18; V 2.26; Q 1.9; S 1.72; M 1.48; A 2.79; Y 1.65; E 2.11; H 1.53; G 2.37; N 1.93
S5: M 3.67; V 2.69; W 2.62; N 3.74; K 2.4; Y 3.17
L12: V 2.56; Q 3.21; F 4.33; D 1.67; P 2.88; S 2.44; E 3.08; C 1.24; K 1.98; Y 2.45; T 1.83
L17: D 1.94; A 2.49; Q 2.03; E 1.44; P 2.35; M 3.7; S 3.25; K 2.71; H 2.06; N 1.39; Y 2.8; F 2.71; G 2.72; T 2.2; W 2.39; C 3.94
G24: L 3.92; F 2.42; R 3.26; T 3.18; Q 2.05; A 3
